Measured values taken from US20250250355A1 (BIOSION, published 2025).

T1: cynomolgus SIRPα-his protein (cynomolgus)
T1 construct: also called Cyno SIRPα-his; monkey SIRPα
T1 chain: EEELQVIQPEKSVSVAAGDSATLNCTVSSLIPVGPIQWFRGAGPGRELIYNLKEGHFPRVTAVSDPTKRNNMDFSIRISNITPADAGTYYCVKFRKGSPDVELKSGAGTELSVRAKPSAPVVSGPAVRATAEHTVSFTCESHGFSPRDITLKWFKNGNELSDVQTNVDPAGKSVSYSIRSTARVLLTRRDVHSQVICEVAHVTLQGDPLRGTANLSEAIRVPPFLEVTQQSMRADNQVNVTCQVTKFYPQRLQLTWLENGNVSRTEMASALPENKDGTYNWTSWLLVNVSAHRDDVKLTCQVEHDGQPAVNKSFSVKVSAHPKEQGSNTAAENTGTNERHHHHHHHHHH

T2: mouse SIRPα-his (mouse, UniProt P97797 35-363, limits assumed)
T2 chain: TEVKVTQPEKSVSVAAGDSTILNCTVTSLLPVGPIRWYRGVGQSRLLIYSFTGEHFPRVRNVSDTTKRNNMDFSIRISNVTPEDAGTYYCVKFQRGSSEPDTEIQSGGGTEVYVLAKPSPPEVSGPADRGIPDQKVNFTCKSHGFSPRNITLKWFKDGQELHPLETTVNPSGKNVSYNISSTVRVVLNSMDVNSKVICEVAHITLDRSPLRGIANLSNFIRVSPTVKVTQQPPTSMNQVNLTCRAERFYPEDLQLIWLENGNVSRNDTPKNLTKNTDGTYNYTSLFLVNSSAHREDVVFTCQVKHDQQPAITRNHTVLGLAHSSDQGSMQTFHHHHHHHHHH

B1: E1H10B7C7 (antibody, V domains shown)
VH: QVQLVQSGAEVKKPGASVKVSCKASGYTFTSYAMQWVRQAPGQRLEWMGWIIAGNGDTKYSQNFQDRVTLTRDTSANTAYMDLSGLRSEDTAVYYCARGSGFSGYGYFDKWGQGTLVTVSS
VL: DIQMTQSPSSLSASVGDRVTITCRASHSISSYLNWYQQKPGKVPKLLIYASSSLQSGVPSRFSGNGSGTDFTLIISSLQPEDFATYYCQQSHSIPLTFGGGTKVEIK
B2: E1F1B1C3-CDRV1-IgG1 (YTE) (antibody)
heavy: QVQLVQSGAEVKKPGASVKVSCKASGYTFTSNAMHWVRQVPGQGLEWMGWIKAGNAEIKYSQKFQGRVTITRDTSATTAYMELSSLRSEDTAVYYCARGDYYYYYMDVWGKGTTVTVSSASTKGPSVFPLAPSSKSTSGGTAALGCLVKDYFPEPVTVSWNSGALTSGVHTFPAVLQSSGLYSLSSVVTVPSSSLGTQTYICNVNHKPSNTKVDKKVEPKSCDKTHTCPPCPAPEAQGGPSVFLFPPKPKDTLYITREPEVTCVVVDVSHEDPEVKFNWYVDGVEVHNAKTKPREEQYNSTYRVVSVLTVLHQDWLNGKEYKCQVSNKALPAPIEKTISKAKGQPREPQVYTLPPSRDELTKNQVSLTCLVKGFYPSDIAVEWESNGQPENNYKTTPPVLDSDGSFFLYSKLTVDKSRWQQGNVFSCSVMHEALHNHYTQKSLSLSPG
light: DIQVTQSPSSLSASVGDRVTITCRASQSISDFLNWYQQKPGKAPKLLIHAASSLQAGVPSRFSGSGSGTDFSLTINSLQPEDFATYYCQQSYSTPLSFGGGTKVEIKRTVAAPSVFIFPPSDEQLKSGTASVVCLLNNFYPREAKVQWKVDNALQSGNSQESVTEQDSKDSTYSLSSTLTLSKADYEKHKVYACEVTHQGLSSPVTKSFNRGEC
B3: E1F1B1C3-CDRV1-IgG1 (antibody)
heavy: not shown
light: B2 light

What was measured:
[1] = biological target: T3, full length human SIRPα on cell membranes (HEK293-SIRPα cells; 293F-SIRPα cells) (human, UniProt P78324 31-504); assay: cell based binding FACS on HEK293-SIRPα cells, MFI; curve not visible in the scan
T3 construct: whole, on cells; also called cell surface human SIRPα; cell surface SIRPα

[2] = biological target: T4, full length human SIRPβ on cell membranes (HEK293-SIRPβ cells; 293F cells expressing human SIRPβ) (human, UniProt O00241 30-398); assay: cell based binding FACS on HEK293-SIRPβ cells, MFI; curve not visible in the scan
T4 construct: whole, on cells; also called cell surface human SIRPβ

[3] = biological target: T1, cynomolgus SIRPα-his protein; assay: indirect ELISA on coated cynomolgus SIRPα-his, OD(450-630); curve not visible in the scan
[4] = biological target: human SIRPα-isoform 2-his protein (human); assay: indirect ELISA on coated human SIRPα-isoform 2-his, OD(450-630); curve not visible in the scan
[5] = biological target: T5, full length human SIRPγ endogenously expressed on Jurkat cells (human, UniProt Q9P1W8 29-387); assay: cell based binding FACS on Jurkat cells (endogenous human SIRPγ), MFI; curve not separable in the scan; paragraph 186 says no binding
T5 construct: whole, on cells; also called human SIRPγ expressed on Jurkat cells

[6] = biological target: T3, full length human SIRPα on cell …; assay: cell based blocking FACS on 293F-SIRPα cells; blocked ligand: biotin-labeled human CD47-Fc, MFI; curve only in faint traces
[7] = biological target: T6, human SIRPα-his protein (human, UniProt P78324 31-370); assay: competitive ELISA on coated human SIRPα-his; blocked ligand: biotin-labeled human CD47-his, OD(450-630); curve not visible in the scan
[8] = biological target: T7, recombinant human SIRPα-Fc protein (human, biotin-labeled (sites not given)); assay: capture ELISA, antibody captured on anti-mouse IgG F(ab')2, biotin-labeled human SIRPα-Fc in solution, OD(450-630); curve not visible in the scan
T7 construct: also called biotin-labeled human SIRPα-Fc protein

[9] = biological target: T2, mouse SIRPα-his; assay: indirect ELISA on coated mouse SIRPα-his, OD(450-630)
[10] = biological target: human SIRPα-V8-his protein (human, UniProt P78324 31-370, limits assumed); assay: indirect ELISA on coated human SIRPα-V8-his, OD(450-630)
[11] = biological target: human SIRPα-isoform 2-his protein (human); assay: indirect ELISA on coated human SIRPα-isoform 2-his, OD(450-630)
[12] = biological target: T3, full length human SIRPα on cell …; assay: cell based binding FACS on 293F cells expressing human SIRPα, MFI
[13] = biological target: T4, full length human SIRPβ on cell …; assay: cell based binding FACS on 293F cells expressing human SIRPβ, MFI
[14] = biological target: human SIRPγ-his protein (human, UniProt Q9P1W8 29-360, limits assumed); assay: SPR (Biacore T200), antibody captured on Protein A chip, human SIRPγ-his flowed
[15] = biological target: T8, human FcRn protein (Cat #FCM-H5286, Acro biosystems Inc.) (human, UniProt P55899 24-297; P61769 21-119); assay: SPR (Biacore); human FcRn covalently linked to CM5 chip, antibody flowed from 62.5 µg/ml; pH 6.0
[16] = biological target: T8, human FcRn protein (Cat #FCM-H5286, …); assay: SPR (Biacore); human FcRn covalently linked to CM5 chip, antibody flowed from 62.5 µg/ml; pH 7.4
[17] = biological target: T3, full length human SIRPα on cell …; assay: cell based blocking FACS on 293F-SIRPα cells; blocked ligand: human CD47 protein (CD47-Fc), MFI
[18] = biological target: T6, human SIRPα-his protein; assay: SPR (Biacore T200); antibody captured on Protein A chip, human SIRPα-his flowed from 200 nM; 1:1 Langmuir fit
[19] = biological target: human SIRPβ-his protein (human, UniProt O00241 30-371); assay: SPR (Biacore T200); antibody captured on Protein A chip, human SIRPβ-his flowed from 200 nM; 1:1 Langmuir fit
[20] = biological target: T1, cynomolgus SIRPα-his protein; assay: indirect ELISA on coated cynomolgus SIRPα-his, OD(450-630); curve flat at the baseline (see non_binding)
[21] = biological target: human SIRPα protein (soluble, used on 293F-CD47 cells) (human, UniProt P78324 31-370, limits assumed); assay: cell based blocking FACS on 293F-CD47 cells; soluble human SIRPα protein blocked from binding cell surface human CD47, MFI
[22] = biological target: T5, full length human SIRPγ endogenously …; assay: cell based binding FACS on Jurkat cells (endogenous human SIRPγ), MFI; curve flat at MFI about 35 up to about 13 nM, rises to about 115 only at the last point (about 67 nM); paragraph 213 says no binding
[23] = biological target: T8, human FcRn protein (Cat #FCM-H5286, …); assay: SPR (Biacore); human FcRn covalently linked to CM5 chip, antibody flowed from 62.5 µg/ml; pH 6.0; pH 6.0
[24] = biological target: T5, full length human SIRPγ endogenously …; assay: cell based binding FACS on Jurkat cells (endogenous human SIRPγ), MFI; curve flat at MFI about 35 up to about 13 nM, rises to about 185 only at the last point (about 67 nM); paragraph 213 says no binding

human SIRPα-isoform 2-his protein (human), sequence (chain, as listed by the source limits assumed): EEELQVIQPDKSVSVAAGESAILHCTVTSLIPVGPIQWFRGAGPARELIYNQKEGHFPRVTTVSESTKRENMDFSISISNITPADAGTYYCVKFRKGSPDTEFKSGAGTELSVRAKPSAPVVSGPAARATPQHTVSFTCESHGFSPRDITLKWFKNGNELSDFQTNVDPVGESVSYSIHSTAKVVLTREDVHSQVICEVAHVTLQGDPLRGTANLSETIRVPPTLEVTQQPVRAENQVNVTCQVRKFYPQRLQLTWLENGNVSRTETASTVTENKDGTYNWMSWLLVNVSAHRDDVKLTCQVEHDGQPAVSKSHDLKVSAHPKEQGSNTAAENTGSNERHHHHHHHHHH
human SIRPβ-his protein, sequence (O00241 other isoform, or with tags, fused parts or gaps limits assumed): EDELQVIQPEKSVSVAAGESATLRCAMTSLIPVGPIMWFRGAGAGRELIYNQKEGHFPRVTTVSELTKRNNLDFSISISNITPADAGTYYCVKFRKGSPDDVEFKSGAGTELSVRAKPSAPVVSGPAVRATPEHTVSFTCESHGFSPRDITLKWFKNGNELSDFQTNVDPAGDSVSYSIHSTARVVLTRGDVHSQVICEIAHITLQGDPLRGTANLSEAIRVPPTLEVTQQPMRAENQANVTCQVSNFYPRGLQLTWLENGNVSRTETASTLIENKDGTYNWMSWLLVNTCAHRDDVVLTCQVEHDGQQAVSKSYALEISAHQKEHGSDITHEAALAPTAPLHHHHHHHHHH
T3 sequence (P78324 31-504): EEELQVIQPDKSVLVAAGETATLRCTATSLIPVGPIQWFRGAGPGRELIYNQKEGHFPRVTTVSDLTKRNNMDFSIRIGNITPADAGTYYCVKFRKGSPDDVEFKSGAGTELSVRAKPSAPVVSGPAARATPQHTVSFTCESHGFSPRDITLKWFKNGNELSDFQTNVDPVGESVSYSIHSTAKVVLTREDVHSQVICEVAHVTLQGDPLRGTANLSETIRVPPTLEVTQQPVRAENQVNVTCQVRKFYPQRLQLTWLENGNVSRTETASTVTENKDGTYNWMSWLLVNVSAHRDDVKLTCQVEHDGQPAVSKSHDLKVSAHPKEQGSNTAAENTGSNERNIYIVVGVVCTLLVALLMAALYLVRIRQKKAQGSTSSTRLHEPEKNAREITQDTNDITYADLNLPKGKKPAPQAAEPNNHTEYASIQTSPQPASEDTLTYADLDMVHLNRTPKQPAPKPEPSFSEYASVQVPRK
T5 sequence (Q9P1W8 29-387): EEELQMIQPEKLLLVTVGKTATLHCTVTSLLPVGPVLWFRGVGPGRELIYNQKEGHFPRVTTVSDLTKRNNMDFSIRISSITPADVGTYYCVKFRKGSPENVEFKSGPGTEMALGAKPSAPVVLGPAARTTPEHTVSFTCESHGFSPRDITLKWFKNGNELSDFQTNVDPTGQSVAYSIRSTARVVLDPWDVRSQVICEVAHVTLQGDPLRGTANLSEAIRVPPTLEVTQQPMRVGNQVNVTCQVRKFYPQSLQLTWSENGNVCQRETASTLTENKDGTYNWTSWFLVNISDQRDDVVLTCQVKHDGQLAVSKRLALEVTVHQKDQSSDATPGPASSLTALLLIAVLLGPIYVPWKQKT
T4 sequence (O00241 30-398): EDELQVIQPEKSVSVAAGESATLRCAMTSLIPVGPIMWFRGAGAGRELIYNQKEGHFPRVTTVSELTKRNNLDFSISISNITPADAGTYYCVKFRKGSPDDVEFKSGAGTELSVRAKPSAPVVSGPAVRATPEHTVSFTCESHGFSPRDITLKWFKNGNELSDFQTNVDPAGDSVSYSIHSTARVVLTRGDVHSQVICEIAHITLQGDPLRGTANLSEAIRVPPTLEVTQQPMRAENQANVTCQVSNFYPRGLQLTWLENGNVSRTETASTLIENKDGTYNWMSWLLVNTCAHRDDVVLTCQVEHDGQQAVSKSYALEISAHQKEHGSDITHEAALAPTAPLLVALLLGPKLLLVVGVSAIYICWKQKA
T8 sequence (P55899 24-297 limits assumed, chain 1 of 2): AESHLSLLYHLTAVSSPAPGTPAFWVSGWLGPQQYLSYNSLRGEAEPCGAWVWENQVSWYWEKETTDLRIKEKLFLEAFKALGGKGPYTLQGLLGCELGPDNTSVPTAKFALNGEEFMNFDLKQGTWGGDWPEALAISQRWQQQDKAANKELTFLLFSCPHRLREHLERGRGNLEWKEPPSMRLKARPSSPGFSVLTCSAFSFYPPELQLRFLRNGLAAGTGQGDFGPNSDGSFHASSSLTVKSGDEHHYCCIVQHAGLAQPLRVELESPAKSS
T8 sequence (P61769 21-119 limits assumed, chain 2 of 2): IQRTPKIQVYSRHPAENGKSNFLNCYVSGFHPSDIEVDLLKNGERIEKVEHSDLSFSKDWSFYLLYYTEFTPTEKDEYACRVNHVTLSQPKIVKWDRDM
T6 sequence (P78324 other isoform, or with tags, fused parts or gaps limits assumed): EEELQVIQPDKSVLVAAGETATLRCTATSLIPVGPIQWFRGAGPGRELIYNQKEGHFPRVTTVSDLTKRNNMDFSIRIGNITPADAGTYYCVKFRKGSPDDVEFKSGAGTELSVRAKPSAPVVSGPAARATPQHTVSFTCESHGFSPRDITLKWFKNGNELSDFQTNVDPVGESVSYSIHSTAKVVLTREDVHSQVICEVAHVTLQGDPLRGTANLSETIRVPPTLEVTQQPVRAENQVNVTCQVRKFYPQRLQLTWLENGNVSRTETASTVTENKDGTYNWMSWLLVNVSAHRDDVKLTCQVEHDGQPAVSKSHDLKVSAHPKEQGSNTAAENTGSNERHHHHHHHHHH
human SIRPα protein (soluble, used on 293F-CD47 cells), sequence (P78324 31-370 limits assumed): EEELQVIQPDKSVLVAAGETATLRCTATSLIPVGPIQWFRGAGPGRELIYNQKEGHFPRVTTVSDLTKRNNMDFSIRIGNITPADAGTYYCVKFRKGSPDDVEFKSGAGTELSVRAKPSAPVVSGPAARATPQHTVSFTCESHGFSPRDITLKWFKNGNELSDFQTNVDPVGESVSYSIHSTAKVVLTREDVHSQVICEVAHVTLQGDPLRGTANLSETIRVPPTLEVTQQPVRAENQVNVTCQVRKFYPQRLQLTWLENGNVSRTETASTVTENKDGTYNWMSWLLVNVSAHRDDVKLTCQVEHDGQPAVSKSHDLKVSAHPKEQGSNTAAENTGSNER
human SIRPγ-his protein, sequence (Q9P1W8 29-360 limits assumed): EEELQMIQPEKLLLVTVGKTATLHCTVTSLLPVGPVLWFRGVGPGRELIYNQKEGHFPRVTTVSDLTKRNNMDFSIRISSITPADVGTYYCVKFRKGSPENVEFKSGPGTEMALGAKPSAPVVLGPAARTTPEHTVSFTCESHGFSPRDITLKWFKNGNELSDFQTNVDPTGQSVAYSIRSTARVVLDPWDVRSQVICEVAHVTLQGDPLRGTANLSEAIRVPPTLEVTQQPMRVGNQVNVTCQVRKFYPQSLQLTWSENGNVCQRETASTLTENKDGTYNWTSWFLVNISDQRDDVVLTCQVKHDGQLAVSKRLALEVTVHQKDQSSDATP
human SIRPα-V8-his protein, sequence (P78324 other isoform, or with tags, fused parts or gaps limits assumed): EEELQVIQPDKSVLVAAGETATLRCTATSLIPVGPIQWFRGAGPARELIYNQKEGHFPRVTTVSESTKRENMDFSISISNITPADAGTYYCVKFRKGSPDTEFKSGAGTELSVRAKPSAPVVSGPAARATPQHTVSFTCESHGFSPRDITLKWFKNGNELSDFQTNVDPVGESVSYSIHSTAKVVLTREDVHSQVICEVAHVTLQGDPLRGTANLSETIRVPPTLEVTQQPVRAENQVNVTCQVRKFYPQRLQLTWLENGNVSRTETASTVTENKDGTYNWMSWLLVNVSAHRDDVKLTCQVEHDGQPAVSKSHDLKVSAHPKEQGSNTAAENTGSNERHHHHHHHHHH
T7 sequence (chain, as listed by the source limits assumed): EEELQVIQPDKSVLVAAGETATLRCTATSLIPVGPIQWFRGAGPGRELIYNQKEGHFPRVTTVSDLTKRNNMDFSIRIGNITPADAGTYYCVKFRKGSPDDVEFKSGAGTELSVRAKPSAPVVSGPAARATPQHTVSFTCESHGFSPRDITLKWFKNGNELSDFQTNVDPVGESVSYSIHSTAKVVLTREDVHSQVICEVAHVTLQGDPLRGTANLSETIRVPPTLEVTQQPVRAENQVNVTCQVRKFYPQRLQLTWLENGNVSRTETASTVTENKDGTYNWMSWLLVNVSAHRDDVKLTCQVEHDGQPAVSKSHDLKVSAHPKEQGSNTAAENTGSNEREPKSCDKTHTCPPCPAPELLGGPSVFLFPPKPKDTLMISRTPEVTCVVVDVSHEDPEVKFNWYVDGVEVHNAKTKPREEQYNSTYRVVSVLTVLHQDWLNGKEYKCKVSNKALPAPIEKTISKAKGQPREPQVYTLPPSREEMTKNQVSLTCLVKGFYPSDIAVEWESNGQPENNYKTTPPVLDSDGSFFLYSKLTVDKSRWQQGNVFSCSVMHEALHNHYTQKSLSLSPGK

Binder | binding result [9] | EC50 [10] | EC50 [11] | EC50 [12] | EC50 [13] | binding result [14] | IC50 [17] | Kd [18] | koff [18] | kon [18] | Kd [19] | koff [19] | kon [19] | EC50 [20] | IC50 [21] | also measured
B1 | – | – | – | – | – | – | – | – | – | – | – | – | – | – | – | EC50 [1]: 0.842 nM; EC50 [2]: 0.689 nM; EC50 [3]: 0.131 nM; EC50 [4]: 0.162 nM; EC50 [5]: 0.5 nM; IC50 [6]: 0.853 nM; IC50 [7]: 2.68 nM; EC50 [8]: 0.103 nM
B2 | no binding (tested: ~67 nM) | 0.179 nM | 0.106 nM | 0.27 nM | 0.2 nM | no binding (tested: antigen starting at 200 nM) | 0.573 nM | 0.824 nM | 0.00105 s⁻¹ | 1.28e+06 M⁻¹ s⁻¹ | 2.81 nM | 0.002 s⁻¹ | 713000 M⁻¹ s⁻¹ | 86.7 nM | 0.264 nM | Kd [15]: 26.8 nM; Kd [16]: 651 nM; EC50 [22]: ~38.6 nM
B3 | no binding (tested: ~67 nM) | 0.148 nM | 0.129 nM | 0.27 nM | 0.248 nM | no binding (tested: antigen starting at 200 nM) | 0.488 nM | 0.344 nM | 0.000402 s⁻¹ | 1.17e+06 M⁻¹ s⁻¹ | 1.17 nM | 0.000907 s⁻¹ | 773000 M⁻¹ s⁻¹ | ~2930 nM | 0.27 nM | Kd [23]: 56.7 nM; EC50 [24]: ~954 nM
